{"source": "patent US20200131227A1", "about": "“POLYPEPTIDE WITH TUMOUR BINDING ACTIVITY” (RUPRECHT-KARLS-UNIVERSITÄT HEIDELBERG, priority 2017, published 2020)", "key": {"[1]": {"tested_on": "recurrent hypopharynx carcinoma", "conditions": "human, in vivo", "procedure": "(§1) The PET/CT scan was performed 1 and 3 hours post tracer administration with a Biograph mCT Flow™ PET/CT-Scanner (Siemens Medical Solution) using the following parameters: slice thickness of 5 mm, increment of 3-4 mm, soft-tissue reconstruction kernel, care dose Immediately after CT scanning, a whole-body PET was acquired in 3D (matrix 200×200) in FlowMotion™ with 0.7 cm/min. The emission data were corrected for random, scatter and decay. Reconstruction was conducted with an ordered subset expectation maximisation (OSEM) algorithm with 2 iterations/21 subsets and Gauss-filtered to a transaxial resolution of 5 mm at full-width half-maximum (FWHM). Attenuation correction was performed using the low-dose non-enhanced CT data. The quantitative assessment of standardized uptake values (SUV) was done using a region of interest technique."}, "NSCLC": {"tested_on": "NSCLC", "conditions": "human, in vivo", "procedure": "as §1"}, "[2]": {"experiment": "Small-animal PET imaging, HNO223 xenografts", "parameters": "species or system mice", "conditions": "Balb/c nude, mouse, in vivo, iv, total radioactivity"}, "[3]": {"experiment": "Small-animal PET imaging, HNO399 xenografts", "parameters": "species or system mice", "conditions": "Balb/c nude, mouse, in vivo, iv, total radioactivity"}, "HNO97 xenografts": {"tested_on": "HNO97 xenografts", "experiment": "in vivo", "conditions": "mouse", "procedure": "(§2) All experiments were conducted in compliance with the German animal protection laws. Eight week old Balb c/c nude mice (Charles River Laboratories) were inoculated subcutaneously at the right shoulder with 5×10^6 HNO97 cells in BD MatriGel™ (BD Bioscience). Xenografts were grown to a tumor diameter of 10-15 mm. For small animal-PET imaging mice were anesthetized using isoflurane inhalation and injected via tail-vein with 50 MBq (2 nmol) of the ^68Ga-labeled DOTA-SFITGv6 peptide (see above) solution in 100 μL PBS. Images were recorded on an Inveon small-animal PET scanner (Siemens) using a 60 min emission scan in list mode and a 10 min transmission scan. Images were taken in 3-dimensional (3D) mode and reconstructed iteratively with a fully 3D algorithm from a 256×256 matrix for viewing transaxial, coronal, and sagittal slices of 0.9 mm thickness. Pixel size was 0.38×0.38×0.79 mm3 and transaxial resolution obtained was 0.9 mm. For blocking experiments 100 μL of a 1 mM aqueous solution of SFITGv6 was pre-administered intraperitoneally 30 min before injection of the radiolabeled peptide. Biodistribution studies were performed after administration of 100 μL of a 20 nM ^177Lu-DOTA-SFITGv6 solution (1 MBq) as an intravenous bolus injection into the tail vein of the mice. After different time points (30 min to 6 hours) three animals, respectively, were sacrificed. Peripheral blood, heart, lung, spleen, liver, kidneys, muscle, brain, intestine, and injection site (tail, after intravenous injection only) were collected and weighted. Tissue-associated radioactivity was measured in a gamma counter (Berthold LB951G) and expressed as percentage of the injected dose per gram tissue (% ID/g).\n(§3) All animal experiments were conducted in compliance with the German animal protection laws. For in vivo small animal PET imaging and organ distribution studies eight-week old Balb/c nude mice (Charles River Laboratories) were inoculated subcutaneously at the right shoulder with a total of 5×10^6 tumor cells in MatriGel (BD Bioscience). Xenografts were grown until a tumor diameter of 10-15 mm was reached.\n(§4) 3-dimensional (3D) PET images of whole mice were captured by the Siemens Inveon PET scanner as described in Example 1. To assess the biodistribution 100 μL of a 20 nM solution (1 MBq) of ^177Lu-DOTA-SFLAP3 and ^177Lu-DOTA-SFITGv6 were administered as an intravenous bolus injection into the tail vein of mice. For each time point (30 min to 6 hours) we sacrificed a total of three animals, and subsequently collected peripheral blood, heart, lung, spleen, liver, kidneys, muscle, brain, and intestine. Tissues were weighed and respective radioactivity was measured by a gamma counter (LB951G, Berthold Technologies). Values were expressed as percentage of the injected dose radioactivity (MBq) per gram tissue (% ID/g)."}, "in vivo": {"experiment": "in vivo", "conditions": "Balb/c nude, mouse, iv, total radioactivity", "procedure": "as §2, §3, §4"}}, "note": "Where a SMILES comes first, the peptide text is derived from it. Bridges are numbered along the chain shown (N, C = ends). The star is where a group is joined. DOTA = O=C(O)CN1CCN(CC(=O)O)CCN(CC(=O)*)CCN(CC(=O)O)CC1"}
{"smiles": "CSCC[C@@H]1NC(=O)[C@H](CC(C)C)NC(=O)[C@H](CC(=O)O)NC(=O)CNC(=O)[C@H](CCCNC(=N)N)NC(=O)[C@H](Cc2ccccc2)NC(=O)[C@H]([C@@H](C)O)NC(=O)[C@@H](NC(=O)[C@H](CCCNC(=N)N)NC(=O)CNC(=O)CN2CCN(CC(=O)O)CCN(CC(=O)O)CCN(CC(=O)O)CC2)CSSC[C@@H](C(=O)N[C@@H](Cc2ccc(O)cc2)C(=O)N2CCC[C@H]2C(=O)N[C@@H](CC(=O)O)C(=O)O)NC(=O)[C@H](CC(C)C)NC(=O)[C@H](CCC(N)=O)NC1=O", "note": "[^68Ga-DOTA-SFITGv6, metal not drawn] ({DOTA}-GRCTFRGDLMQLCYPD-OH; disulfide 3-13)", "values": [{"measurement": "SUVmax Elbow", "setting": "[1]", "value": 1.70}, {"measurement": "SUVmax Gallbladder", "setting": "[1]", "value": 1.90}, {"measurement": "SUVmax Hilar", "setting": "[1]", "value": 1.00}, {"measurement": "SUVmax Shoulder", "setting": "NSCLC", "value": 1.50}, {"measurement": "SUV at 1 h", "setting": "[2]", "value": 0.23, "unit": "SUV"}, {"measurement": "SUV at 1 h", "setting": "[3]", "value": 0.33, "unit": "SUV"}, {"measurement": "time after injection until radioactivity accumulated in the tumor", "setting": "HNO97 xenografts", "value": "≤ 20", "unit": "min"}, {"measurement": "time for which tumor accumulation was maintained", "setting": "HNO97 xenografts", "value": "at least 140 min"}, {"measurement": "time of clearance of non-specific activity from the blood", "setting": "HNO97 xenografts", "value": "≤ 60", "unit": "min"}, {"measurement": "SUV at 1 h", "setting": "in vivo", "value": 0.68, "unit": "SUV"}]}
